In article PMC2615600:

Assays:
[1] = molecular target: T1, phi29 DNA polymerase wild-type (Bacteriophage phi29, UniProt P03680 1-575); experiment: EMSA
T1 sequence: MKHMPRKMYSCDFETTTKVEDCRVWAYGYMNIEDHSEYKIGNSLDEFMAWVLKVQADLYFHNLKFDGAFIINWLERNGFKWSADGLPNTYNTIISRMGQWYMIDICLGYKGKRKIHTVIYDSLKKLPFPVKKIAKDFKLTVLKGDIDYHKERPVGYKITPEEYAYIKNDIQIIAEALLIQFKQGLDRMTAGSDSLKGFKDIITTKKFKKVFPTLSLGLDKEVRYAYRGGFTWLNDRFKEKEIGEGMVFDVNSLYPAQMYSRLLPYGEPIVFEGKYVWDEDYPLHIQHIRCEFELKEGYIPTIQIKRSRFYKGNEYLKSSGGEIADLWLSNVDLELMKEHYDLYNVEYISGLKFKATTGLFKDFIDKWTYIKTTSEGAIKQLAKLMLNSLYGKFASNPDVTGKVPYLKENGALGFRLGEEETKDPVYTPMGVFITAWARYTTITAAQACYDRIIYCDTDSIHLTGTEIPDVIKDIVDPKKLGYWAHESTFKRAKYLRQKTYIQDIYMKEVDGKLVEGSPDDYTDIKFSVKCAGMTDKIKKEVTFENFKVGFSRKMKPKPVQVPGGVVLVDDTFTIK

[2] = molecular target: T2, phi29 DNA polymerase G410C/P562C (Bacteriophage phi29, UniProt P03680 1-575, G410C;P562C); experiment: EMSA
T2 sequence: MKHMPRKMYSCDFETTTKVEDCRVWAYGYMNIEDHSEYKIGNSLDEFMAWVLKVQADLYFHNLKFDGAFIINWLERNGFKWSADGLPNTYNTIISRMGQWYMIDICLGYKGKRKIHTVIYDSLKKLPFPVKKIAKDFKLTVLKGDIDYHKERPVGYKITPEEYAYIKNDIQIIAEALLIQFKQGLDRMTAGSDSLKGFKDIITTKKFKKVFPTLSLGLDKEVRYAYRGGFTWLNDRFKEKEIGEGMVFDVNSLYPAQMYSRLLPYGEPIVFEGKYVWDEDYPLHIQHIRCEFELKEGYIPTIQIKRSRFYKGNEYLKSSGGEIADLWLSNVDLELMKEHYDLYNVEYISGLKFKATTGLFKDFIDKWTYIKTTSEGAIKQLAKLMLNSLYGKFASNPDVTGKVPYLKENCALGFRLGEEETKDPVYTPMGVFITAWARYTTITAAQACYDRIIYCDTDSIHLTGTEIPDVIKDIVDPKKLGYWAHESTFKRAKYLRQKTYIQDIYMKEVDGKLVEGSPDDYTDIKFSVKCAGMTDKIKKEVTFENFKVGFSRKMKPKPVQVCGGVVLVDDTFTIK

B1: sp1/sp1c+6 (15/21mer primer/template) (dsDNA)
DNA 1: GATCACAGTGAGTAC
DNA 2: TCTATTGTACTCACTGTGATC
binding result [1]: binds
binding signal [2]: 3 % of wild-type (unit presumed)
